US8008547B2, “Glyphosate-N-acetyltransferase (GAT) genes” (E.I. duPont de Nemours, priority 2000, dated 2011)
Residue numbers refer to the chain shown, from its start.

B1: SEQ ID NO: 279: GAT polypeptide (protein)
chain: MIEVKPINAEDTYEIRHRILRPNQPLEACKYETDLLGGTFHLGGYYRGKLVSIASFHQAEHPELEGQKQYQLRGMATLEGYREQKAGSTLIRHAEELLRKKGADLLWCNARTSASGYYKKLGFSEQGEVYDIPPTGPHILMYKKLT
modifications: 10_3G5
notes: GAT polypeptide
B2: SEQ ID NO: 510: GAT polypeptide (protein)
chain: B1 chain with K30M, V51I, P62S, A114V, E128G, Y130C, T135I, T146A
modifications: GAT1_29G1
notes: GAT polypeptide
B3: SEQ ID NO: 511: GAT polypeptide (protein)
chain: B1 chain with K30M, V51I, A114V, K119E, T135I
modifications: GAT1_32G1
notes: GAT polypeptide
B4: SEQ ID NO: 509: GAT polypeptide (protein)
chain: B1 chain with K30M, V51I, P62S, S113F, A114V, K119E, T135I, H138Y, K143E
modifications: GAT1_24G3
notes: GAT polypeptide
B5: SEQ ID NO: 508: GAT polypeptide (protein)
chain: B1 chain with V51I, Q58N, P62S, A114V, T135I
modifications: GAT1_21F12
notes: GAT polypeptide
B6: SEQ ID NO: 280: GAT polypeptide (protein)
chain: B1 chain with K30M
modifications: 10_4H7
notes: GAT polypeptide
B7: SEQ ID NO: 281: GAT polypeptide (protein)
chain: B1 chain with F40L, T135V
modifications: 10_6D11
notes: GAT polypeptide
B8: SEQ ID NO: 495: GAT polypeptide (protein)
chain: MLXVKPINAEDTYELRHKILRPNQPXEVCMYEXDLLRGAFHLGGFYRGKLISIASFHQAEHSDLQGQKQYQLRGMATLEGYRDQKAGSSLIKHAEQILRERGADMLWCNARTSASGYYKKLGFSEQGEVFDTPPVGPHILMYKRLT
modifications: X: residue not identified in the source; ends and bridges not checked
notes: GAT polypeptide
B9: SEQ ID NO: 482: GAT polypeptide (protein)
chain: MIEVKPINAEDTYELRHRILRPNQPLEACMYETDLLRGSFHLGGFYRGKLISIASFHQAEHSDLQGQKQYQLRGMATLEGYREQKAGSTLIRHAEQLLRKRGADLLWCNARTSASGYYKRLGFSEHGEVFDTPPVGPHILMYKRLT
modifications: 1_4H1
notes: GAT polypeptide
B10: SEQ ID NO: 503: GAT polypeptide (protein)
chain: B9 chain with A28V, S39A, T89S, R92K, Q96E, L97I, R120K, H126Q, V129I, L145I
modifications: 8_1F8
notes: GAT polypeptide
B11: SEQ ID NO: 499: GAT polypeptide (protein)
chain: B8 chain with L2I, X3E, X26L, X33T, D83E, K92R, E100K, D131E
modifications: 6_1F11
notes: GAT polypeptide
B12: SEQ ID NO: 507: GAT polypeptide (protein)
chain: B8 chain with X3E, X26L, X33T, F45Y, D83E, K92R, Q96E, E100K, M105L
modifications: 8_1H9
notes: GAT polypeptide
B13: SEQ ID NO: 483: GAT polypeptide (protein)
chain: MLEVKPINAEETYELRHKILRPNQPLEACMYESDLLRGSFHLGGYYRGQLISIASFHQAEHSELEGQKQYQLRGMATLEGFREQKAGSTLIKHAEQILRKRGADMLWCNARTSAAGYYKKLGFSEHGEIFDTPPVGPHILMYKKLT
modifications: 1_5H5
notes: GAT polypeptide
B14: SEQ ID NO: 486: GAT polypeptide (protein)
chain: MLEVKPINAEDTYELRHRILRPNQPIEACMYESDLLRGAFHLGGYYRGKLISIASFHQAEHSELQGQKQYQLRGMATLEGYREQKAGSSLVKHAEEILRKRGADLLWCNARTSASGYYKKLGFSEQGEIFETPPVGPHILMYKRIT
modifications: 3_11A10
notes: GAT polypeptide
B15: SEQ ID NO: 504: GAT polypeptide (protein)
chain: B14 chain with L2I, I19V, I26L, A28V, S33T, V91I, I129V, I145L
modifications: 8_1G2
notes: GAT polypeptide
B16: SEQ ID NO: 506: GAT polypeptide (protein)
chain: B14 chain with A28V, S33T, Y45F, V91I, L105M, I145L
modifications: 8_1H7
notes: GAT polypeptide
B17: SEQ ID NO: 492: GAT polypeptide (protein)
chain: B14 chain with A28V, V91I
modifications: 3_8G11
notes: GAT polypeptide
B18: SEQ ID NO: 489: GAT polypeptide (protein)
chain: B14 chain with L2I, V91I
modifications: 3_6A10
notes: GAT polypeptide
B19: SEQ ID NO: 488: GAT polypeptide (protein)
chain: B14 chain with R18K, I26L, A28V, S33T, R47G, V91I
modifications: 3_15B2
notes: GAT polypeptide
B20: SEQ ID NO: 491: GAT polypeptide (protein)
chain: B14 chain with R47G, E63D, V91I
modifications: 3_7F9
notes: GAT polypeptide
B21: SEQ ID NO: 487: GAT polypeptide (protein)
chain: B14 chain with Y45F, V91I, I145L
modifications: 3_14F6
notes: GAT polypeptide
B22: SEQ ID NO: 490: GAT polypeptide (protein)
chain: B14 chain with S62P, V91I, I129V
modifications: 3_6B1
notes: GAT polypeptide
B23: SEQ ID NO: 505: GAT polypeptide (protein)
chain: B14 chain with R18K, A28V, S33T, V91I, K92R, E131D
modifications: 8_1G3
notes: GAT polypeptide
B24: SEQ ID NO: 493: GAT polypeptide (protein)
chain: MIEVKPINAEDTYELRHRILRPNQPIEVCMYETDLLRGAFHLGGFYGGKLISIASFHQAEHSDLQGQKQYQLRGMATLEGYRDQKAGSSLIRHAEQILRKRGADMLWCNARTSASGYYKKLGFSEQGEIFETPPVGPHILMYKRIT
modifications: 4_1B10
notes: GAT polypeptide
B25: SEQ ID NO: 497: GAT polypeptide (protein)
chain: B24 chain with I2L, R18K, I26L, G47R, K119R, I129V, I145L
modifications: 6_1A11
notes: GAT polypeptide
B26: SEQ ID NO: 494: GAT polypeptide (protein)
chain: B24 chain with I26L
modifications: 5_2B3
notes: GAT polypeptide
B27: SEQ ID NO: 502: GAT polypeptide (protein)
chain: B24 chain with I2L, R18K, I26L, S89T, R92K, I129V, I145L
modifications: 6_1H4
notes: GAT polypeptide
B28: SEQ ID NO: 496: GAT polypeptide (protein)
chain: B24 chain with I2L, R18K, I145L
modifications: 5_2F10
notes: GAT polypeptide
B29: SEQ ID NO: 498: GAT polypeptide (protein)
chain: B24 chain with R18K, I26L, G47R, I129V
modifications: 6_1D5
notes: GAT polypeptide
B30: SEQ ID NO: 500: GAT polypeptide (protein)
chain: B24 chain with I2L, R18K, I26L, G47R, D63E, I129V, I145L
modifications: 6_1F1
notes: GAT polypeptide
B31: SEQ ID NO: 501: GAT polypeptide (protein)
chain: B24 chain with I2L, R18K, I26L, Q96E, I129V, E131D, R144K
modifications: 6_1H10
notes: GAT polypeptide
B32: SEQ ID NO: 484: GAT polypeptide (protein)
chain: MIEVKPINAEETYELRHRILRPNQPIEACMYESDLLRGSFHLGGFYRGKLISIASFHQAEHSDLEGQKQYQLRGMATLEGYRDQKAGSTLIKHAEELLRKRGADMLWCNARTSAAGYYKRLGFSEHGEIYETPPVGPHILMYKKIT
modifications: 1_6F12
notes: GAT polypeptide
B33: SEQ ID NO: 485: GAT polypeptide (protein)
chain: B32 chain with E11D, R18K, K49Q, T89S, L97I, M105L, H126Q, Y130F, E131D
modifications: 1_6H6
notes: GAT polypeptide

test: Standard protocol for determination of kcat and KM (continuous spectrophotometric assay, Acetyl CoA hydrolysis at 235 nm); type: biochemical; settings: purified protein; about 23° C.; 20 mM HEPES pH 6.8, 10% ethylene glycol, 0.2 mM acetyl CoA
Procedure, shortened: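 KM from initial rates over 0.125–10 mM glyphosate, fitted by Lineweaver-Burke transformation of Michaelis-Menten; kcat/KM computed as kcat divided by KM. Continuous spectrophotometric read of acetyl-CoA hydrolysis at 235 nm.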

Molecule | Kcat
B1 | 1.46 s⁻¹
B2 | 0.103 s⁻¹
B3 | 0.075 s⁻¹
B4 | 0.0817 s⁻¹
B5 | 0.09 s⁻¹
B6 | 1.87 s⁻¹
B7 | 1.04 s⁻¹
B8 | 1.257 s⁻¹
B9 | 3.93 s⁻¹
B10 | 1.381 s⁻¹
B11 | 1.7627 s⁻¹
B12 | 1.306 s⁻¹
B13 | 3.57 s⁻¹
B14 | 2.2568 s⁻¹
B15 | 1.124 s⁻¹
B16 | 1.6873 s⁻¹
B17 | 1.652 s⁻¹

Molecule | Kcat
B18 | 2.108 s⁻¹
B19 | 1.7355 s⁻¹
B20 | 3.2258 s⁻¹
B21 | 3.1405 s⁻¹
B22 | 4.3847 s⁻¹
B23 | 1.815 s⁻¹
B24 | 1.285 s⁻¹
B25 | 0.759 s⁻¹
B26 | 0.9458 s⁻¹
B27 | 1.432 s⁻¹
B28 | 0.912 s⁻¹
B29 | 0.7153 s⁻¹
B30 | 1.164 s⁻¹
B31 | 0.2835 s⁻¹
B32 | 3.48 s⁻¹
B33 | 4.57 s⁻¹

same assay, conditions: purified protein; about 23° C.; pH 6.8; 0.2 mM acetyl CoA; glyphosate 0.125 to 10 mM

Molecule | Km
B1 | 2000 µM
B2 | 4000 µM
B3 | 3300 µM
B4 | 3800 µM
B5 | 4600 µM
B6 | 1700 µM
B7 | 1200 µM
B9 | 1200 µM
B13 | 510 µM
B14 | 170 µM
B18 | 660 µM
B20 | 290 µM
B21 | 250 µM
B22 | 430 µM
B32 | 14700 µM
B33 | 1050 µM
